We go through 83 variants from the RNAGym collection of RNA variant scans (doi:10.1093/molbev/msab373).

The chains are these.
B1: Azoarcus group I ribozyme (parent)
chain: GUGCCUUGCGCCGGGAAACCACGCAAGGGAUGGUGUCAAAUUCGGCGAAACCUAAGCGCCCGCCCGGGCGUAUGGCAACGCCGAGCCAAGCUUCGGCGCCUGCGCCGAUGAAGGUGUAGAGACUAGACGGCACCCACCUAAGGCAAACGCUAUGGUGAAGGCAUAGUCCAGGGAGUGGCGAAAGUCACACAAACCGG

The variants in this series derive from B1. Nature of the series: reverse-splicing fitness (ratio to wild type); higher = more active; in vitro selection; Mg2+ level not given. The procedure, abridged:
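An in vitro group I ribozyme library with randomized positions was T7-transcribed and gel-purified. In triplicate, 10 pmol RNA in EPPS pH 7.5 was reacted with 50 pmoles of a 30-nt RNA substrate for 1 h at 37 °C across several added MgCl2 levels (1–48 mM), then stopped with EDTA. Products were reverse transcribed from a substrate-complementary primer, PCR-amplified and sequenced (HiSeq 4000). Fitness is a variant's read proportion after selection over that before, normalised to wild type.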
Turning to C82A A111U A120C C150A C169A U176C, the reverse-splicing fitness came out at 0.0233. Turning to C82A A111U A120C C150A C169A U176A, the reverse-splicing fitness amounted to 0.0227. For C82A A111U A120C C150A C169A U176G, the reverse-splicing fitness was 0.0108. With C82A A111U A120C A145G, the reverse-splicing fitness was determined as 0.0269.

As for C82A A111U A120C A145U, the reverse-splicing fitness is 0.0284. To C82A A111U A120C A145C belongs 0.0267; to C82A A111G C150G C169A U176G, 0.00753; to C82A A111G C150G C169A U176C, 0.0122. C82A A111G C150G C169A U176A: the reverse-splicing fitness turned out to be 0.0113. On to C82A A111U A120C A145C U176G, for which the reverse-splicing fitness amounted to 0.00578. For the variant C82A A111U A120C A145C U176C, the reverse-splicing fitness is 0.0202.

As to C82A A111U A120C A145C U176A, the reverse-splicing fitness came to 0.0139. Consider C82A A111G C169G U176G, for which the reverse-splicing fitness was found to be 0.00548. As to C82A A111G C169G U176A, the reverse-splicing fitness was determined as 0.0181. For C82A A111G C169G U176C, the reverse-splicing fitness worked out at 0.0207. As to C82A A111U A120C A145U C150A C169G U176C, the reverse-splicing fitness stood at 0.0263. For the variant C82A A111U A120C A145U C150A C169G U176A, the reverse-splicing fitness came to 0.0219. Turning to C82A A111U A120C A145U C150A C169G U176G, the reverse-splicing fitness is 0.00723. For C82A A111U A120C A145U C150U U176G, the reverse-splicing fitness amounted to 0.00684.

In the case of C82A A111U A120C A145U C150U U176A, the reverse-splicing fitness was determined as 0.0138. As for C82A A111U A120C A145U C150U U176C, the reverse-splicing fitness worked out at 0.0191. For C82A A111U A120C C150G C169A U176A, the reverse-splicing fitness came to 0.0125. As to C82A A111U A120C C150G C169A U176G, the reverse-splicing fitness is 0.00717. Take C82A A111U A120C C150G C169A U176C: the reverse-splicing fitness was 0.0122.

As for C82A A111U, the reverse-splicing fitness was 0.299. Take C82A A111U A120C A145G C169A U176G: the reverse-splicing fitness came out at 0.00699.

Consider C82A A111U A120C A145G C169A U176A, for which the reverse-splicing fitness was found to be 0.0312.

Regarding C82A A111U A120C A145G C169A U176C, the reverse-splicing fitness was found to be 0.0332. For C82A A111G C150U C169A U176C, the reverse-splicing fitness is 0.0164. Regarding C82A A111G C150U C169A U176A, the reverse-splicing fitness was determined as 0.0185.

As for C82A A111G C150U C169A U176G, the reverse-splicing fitness turned out to be 0.00716.

As to C82A A111U A120C A145U C169G U176G, the reverse-splicing fitness amounted to 0.00642. To C82A A111U A120C A145U C169G U176A belongs 0.0204; to C82A A111U A120C A145U C169G U176C, 0.0253. As to C82A A111U A120C C150G C169G U176C, the reverse-splicing fitness is 0.00529. Take C82A A111U A120C C150G C169G U176A: the reverse-splicing fitness worked out at 0.00746. As to C82A A111U A120C C150G C169G U176G, the reverse-splicing fitness came out at 0.00574. Consider C82A A111G A145U C150G C169U U176G, for which the reverse-splicing fitness was determined as 0.00668. To C82A A111G A145U C150G C169U U176A belongs 0.00709. Take C82A A111G A145U C150G C169U U176C: the reverse-splicing fitness was 0.0117.

As to C82A A111U A120C A145C C169A U176G, the reverse-splicing fitness came out at 0.00573. Next, C82A A111U A120C A145C C169A U176A: 0.0167; C82A A111U A120C A145C C169A U176C: 0.0175.

Take C82A A111G C150U C169G: the reverse-splicing fitness was 0.00992. To C82A A111G C150U C169A belongs 0.011; to C82A A111G C150U C169U, 0.0122; to C82A A111G A145U C169G U176G, 0.00511. To C82A A111G A145U C169G U176C belongs 0.0131; to C82A A111G A145U C169G U176A, 0.011; to C82A A111U A120C A145G C150G C169G U176A, 0.0112. Regarding C82A A111U A120C A145G C150G C169G U176C, the reverse-splicing fitness worked out at 0.0155. Turning to C82A A111U A120C A145G C150G C169G U176G, the reverse-splicing fitness was found to be 0.00673.

Turning to C82A A111U A120C A145C C150A U176C, the reverse-splicing fitness was 0.0167.

As for C82A A111U A120C A145C C150A U176G, the reverse-splicing fitness turned out to be 0.00578. As to C82A A111U A120C A145C C150A U176A, the reverse-splicing fitness turned out to be 0.0115. For C82A A111U A120C A145C C150U U176G, the reverse-splicing fitness worked out at 0.00643. Turning to C82A A111U A120C A145C C150U U176A, the reverse-splicing fitness came out at 0.0118. On to C82A A111U A120C A145C C150U U176C, for which the reverse-splicing fitness was found to be 0.0198. Regarding C82A A111G C169A U176A, the reverse-splicing fitness worked out at 0.0155. On to C82A A111G C169A U176G, for which the reverse-splicing fitness is 0.00616.

Consider C82A A111G C169A U176C, for which the reverse-splicing fitness turned out to be 0.019. As for C82A A111U A120C A145G C150G C169U U176G, the reverse-splicing fitness is 0.00787.

With C82A A111U A120C A145G C150G C169U U176C, the reverse-splicing fitness came out at 0.0129. Turning to C82A A111U A120C A145G C150G C169U U176A, the reverse-splicing fitness stood at 0.0146.

Consider C82A A111G U176A, for which the reverse-splicing fitness amounted to 0.189. With C82A A111G U176G, the reverse-splicing fitness is 0.0537. Consider C82A A111G U176C, for which the reverse-splicing fitness is 0.262. C82A A111U A120C A145G C150U C169U U176G: the reverse-splicing fitness is 0.00781.

As to C82A A111U A120C A145G C150U C169U U176A, the reverse-splicing fitness stood at 0.0152. For C82A A111U A120C A145G C150U C169U U176C, the reverse-splicing fitness stood at 0.0148.

As to C82A A111U A120C A145C C169G, the reverse-splicing fitness turned out to be 0.01. For the variant C82A A111U A120C A145C C169A, the reverse-splicing fitness is 0.0103. As for C82A A111U A120C A145C C169U, the reverse-splicing fitness was determined as 0.0112.

As for C82A A111U A120C A145U C150G C169U U176A, the reverse-splicing fitness is 0.00711. Turning to C82A A111U A120C A145U C150G C169U U176C, the reverse-splicing fitness was 0.0117. Consider C82A A111U A120C A145U C150G C169U U176G, for which the reverse-splicing fitness was determined as 0.00741. For the variant C82A A111U A120C A145C C150U C169U U176A, the reverse-splicing fitness came out at 0.0144. For the variant C82A A111U A120C A145C C150U C169U U176G, the reverse-splicing fitness worked out at 0.00618. Next, C82A A111U A120C A145C C150U C169U U176C: 0.0133; C82A A111U A120C C150G C169U: 0.0101.

With C82A A111U A120C C150G C169G, the reverse-splicing fitness was found to be 0.00832. Regarding C82A A111U A120C C150G C169A, the reverse-splicing fitness was found to be 0.0101.

With C82A A111U A120C A145C C150U, the reverse-splicing fitness stood at 0.0149.
